Test results from patent US20230137139A1, “BIOSYNTHESIS OF CANNABINOIDS AND C[…]” (priority 2020, published 2023).
Where a chain is given by its changes, count along the chain named.

B1: t808238 (protein)
chain: MWLSTMNGSASRRSDPVSRKIVCDGHASAHEVRTDNEAARDVPSRTAVNKERKQGSGPPGAMQRGFHAAHKPNEMVPQDGPLGRTAQLFRLAPACQSEPTRAPGQPSDLRLRQIPLATEQAARTLARMRPARFTFPYGRAAEDDCYLKKEDEGHDQSHPTSVLVGVPPFTRRCAAAETFKDTRARAPGTQPTDTTSTGASPSWTLSPLLSLSATDDSVPSKMGNGQSTPLQQCLNTVCNGRLGCVAFPSDALYQAAWVKPYNLDVPVTPIAVFKPSSTEDVAGAIKCAVASNVHVQAKSGGHSYANFGLGGQDGELMIDLANLQDFHMDKTSWQATFGAGYRLGDLDKKLQANGNRAIAHGTCPGVGIGGHATIGGLGPMSRMWGSALDHVLSVQVVTADGSIKNASESENSDLFWALRGAGASFGVITKFTVKTHPAPGSVVQYTYKISLGSQAQMAPVYAAWQALAGDPKLDRRFSTLFIAEPLGALITGTFYGTKAEYEATGIAARLPSGGTLDLKLLDWLGSLAHIAEVVGLTLGDIPTSFYGKSLALREEDMLDRTSIDGLFRYMGDADAGTLLWFVIFNSEGGAMADTPAGATAYPHRDKLIMYQSYVIGIPTLTKATRDFADGVHDRVRMGAPSANSTYAGYIDRTLSREAAQEFYWGAQLPRLREVKKAWDPKDVFHNPQSVDPAE
B2: Strain t808200: library TS SEQ ID NO: 164, UniProt A0A3F3PQ52, Aspergillus welwitschiae (protein)
chain: MGNTTSIAGRDCLISALGGNSALAAFPNELLWTADVHEYNLNLPVTPAAITYPETAEQIAGIVKCASDYDYKVQARSGGHSFGNYGLGGADGAVVVDMKHFTQFSMDDETYEAVIGPGTTLNDVDIELYNNGKRAMAHGVCPTIKTGGHFTIGGLGPTARQWGLALDHVEEVEVVLANSSIVRASNTQNQDVFFAVKGAAANFGIVTEFKVRTEPAPGLAVQYSYTFNLGSTAEKAQFVKDWQSFISAKNLTRQFYNNMVIFDGDIILEGLFFGSKEQYDALGLEDHFAPKNPGNILVLTDWLGMVGHALEDTILKLVGNTPTWFYAKSLGFRQDTLIPSAGIDEFFEYIANHTAGTPAWFVTLSLEGGAINDIAEDATAYAHRDVLFWVQLFMVNPLGPISDTTYEFTDGLYDVLARAVPESVGHAYLGCPDPRMEDAQQKYWRTNLPRLQELKEELDPKNTFHHPQGVMPA
B3: t865772 (protein)
chain: B2 chain with A25V, D35A, E57A, I62V, I374V, L398V
modifications: expressed in S. cerevisiae strain
B4: t808232 (protein)
chain: MGNTTSIAAGRDCLLSAVGGNHAHVAFQDQLLYQATAVEPYNLNIPVTPAAVTYPQSADEVAAVVKCAADYGYKVQARSGGHSFGNYGLGGEDGAIVVDMKHFDQFSMDESTYTATIGPGITLGDLDTALYNAGHRAMAHGICPTIRTGGHLTIGGLGPTARQWGLALDHVEEVEVVLANSSIVRASDTQNQEILFAVKGAAASFGIVTEFKVRTEEAPGLAVQYSFTFNLGTAAEKAKLVKDWQAFIAQEDLTWKFYSNMNIIDGQIILEGIYFGSKAEYDALGLEEKFPTSEPGTVLVLTDWLGMVGHGLEDVILRLVGNAPTWFYAKSLGFAPRALIPDSAIDDFFEYIHKNNPGTVSWFVTLSLEGGAINKVPEDATAYGHRDVLFWVQIFMINPLGPVSQTIYDFADGLYDVLAKAVPESAGHAYLGCPDPRMPNAQQAYWRNNLPRLEELKGDLDPKDIFHNPQGVMVVS
B5: t808237 (protein)
chain: MGNTTSIAGRDCLVSALGGNAGLVAFQDQLLYQTTAVHEYNLNIPVTPAAVTYPETAEQIAAVVKCASEYDYKVQARSGGHSFGNYGLGGADGAVVVDMKHFSQFSMDDQTYEAVIGPGTTLGDVDTELYNNGKRAMAHGICPTISTGGHFTMGGLGPTARQWGLALDHVEEVEVVLANSSIVRASNTQNQEVFFAVKGAAASFGIVTEFKVRTQPAPGLAVQYSYTFNIGSSAEKAQFVKDWQSFISAKNLTRQFYTNMVIFDGDIILEGLFFGSQEQYEALGLEDRFVPKNPGNILVLTDWLGMVGHALEDTILRLVGNTPTWFYAKSLGFTPDTLIPASGIDEFFDYIENHKAGTLTWFVTLSLEGGAINDVPEDATAYGHRDVLFWVQIFMASPTGPVSSTTYDFADGLYNVLTKAVPESEGHAYLGCPDPKMADAQQKYWRQNLPRLEELKATLDPKDTFHNPQGILPA

Tests used:
Assay type in all cases: cell-based, S. cerevisiae
[1] = tested on: CBCA, THCA, and CBDA production; CBGA residual substrate; experiment: In vivo TS activity assay, Example 3 metagenomic CBCAS screen, cultures fed olivetolic acid; settings: for Mean CBCA / Mean CBDA / Mean THCA: metagenomic CBCAS candidates in S. cerevisiae, secondary screen, quadruplicate; for Mean CBCA / Mean CBDA / Mean THCA / % CBCA / % CBDA / % THCA: fed 1 mM olivetolic acid; for Average CBGA residual substrate: olivetolic acid fed (Table 12); for % CBCA / % CBDA / % THCA: share of terminal cannabinoid product profile
Procedure: (§1) An assay to detect TS activity was conducted as follows: each thawed glycerol stock of candidate CBCAS transformants was stamped into a well of YEP+4% dextrose media. Samples were incubated at 30° C. in a shaking incubator for 2 days. A portion of each of the resulting cultures was stamped into a well of YEP+4% galactose+1 mM olivetolic acid (FIG. 1 Structure 6a). Samples were incubated at 20° C. and shaken in a shaking incubator for 4 days. Every 24 hours during those 4 days, 2% galactose and 1 mM olivetolic acid were spiked into the cultures. Sodium citrate buffer adjusted to pH 5.5 was added to each well at a final concentration of 100 mM. Samples were incubated at 20° C. and shaken in a shaking incubator for 2 days. A portion of each of the resulting production cultures was stamped into a well of phosphate buffered saline (PBS). Optical measurements were taken on a plate reader, with absorbance measured at 600 nm and fluorescence at 528 nm with 485 nm excitation. Samples were incubated at 30° C. in a shaking incubator for 2 days. 100% methanol was stamped into the production cultures in half-height deepwell plates. Plates were heat sealed and frozen. Samples were then thawed for 30 min and spun down at 4° C. A portion of the supernatant was stamped into half-area 96 well plates. CBCA, THCA, and CBDA production in the samples was quantified via liquid chromatography-mass spectrometry (LC-MS).
(§2) To explore whether other putative CBCASs may exist in the broader metagenome, a library of 1072 candidate CBCAS genes was designed using the A. niger CBCAS enzyme identified in Example 1 as a reference. Protein sequences were recoded in silico for expression in S. cerevisiae and synthesized in the integrative yeast expression vector shown in FIG. 5. Each candidate enzyme expression construct was transformed into an S. cerevisiae CEN.PK strain that also expressed a prenyltransferase enzyme capable of catalyzing reaction R^4 in FIG. 2. Strain t616313, expressing GFP, was included in the library screen as a negative control for enzyme activity. Strain t807925, expressing the A. niger enzyme identified in Example 1, was included in the library screen as a positive control for enzyme activity. All candidate enzymes in the library, as well as the enzyme expressed by positive control strain t807925, included an N-terminal MFalpha2 signal peptide (SEQ ID NO: 16) (with a methionine residue added at the N-terminus of the MFalpha2 signal peptide) and a C-terminal HDEL signal peptide (SEQ ID NO: 17).
The library of candidate CBCAS enzymes was assayed for activity in a primary high-throughput screen using the assay described in Example 1. Production of CBCA, THCA, and/or CBDA in the samples was quantified via LC-MS.
(§3) Based on results of the primary screen, 70 strains were carried forward to a secondary screen to confirm activity observed in the primary screen. The experimental protocol for the secondary screen was identical to the primary screen, except that additional technical replicates were included per strain, and replicate production cultures for each strain were separately fed 1 mM olivetolic acid or 1 mM divaric acid. All strains were screened in quadruplicate (FIGS. 10A-10C, Tables 10 and 11).

[2] = tested on: CBCVA, THCVA, and CBDVA production; CBGVA residual substrate; experiment: In vivo TS activity assay, Example 3 metagenomic CBCAS screen, cultures fed divaric acid; settings: for Average CBGVA residual substrate: divaric acid fed (Table 12); for Mean CBCVA / Mean CBDVA / Mean THCVA: secondary screen, S. cerevisiae, quadruplicate, LC-MS; for Mean CBCVA / Mean CBDVA / Mean THCVA / % CBCVA / % CBDVA / % THCVA: cultures fed 1 mM divaric acid; for % CBCVA / % CBDVA / % THCVA: share of terminal cannabinoid products
Procedure: as §1, §2, §3

[3] = tested on: CBCA, THCA, and CBDA production; experiment: In vivo TS activity assay, Example 2 protein engineering of A. niger CBCAS, cultures fed olivetolic acid
Procedure, shortened: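 S. cerevisiae expressing A. niger CBCAS mutants (MFalpha2/HDEL-tagged) grown 2 days at 30 °C in YEP+4% dextrose, then 4 days at 20 °C in YEP+4% galactose with 1 mM olivetolic acid, spiked every 24 h with 2% galactose and 1 mM olivetolic acid. 100 mM citrate pH 5.5 added, methanol-extracted; CBCA, THCA, CBDA quantified by LC-MS.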

[4] = tested on: CBCVA, THCVA, and CBDVA production; experiment: In vivo TS activity assay, Example 2 protein engineering of A. niger CBCAS, cultures fed divaric acid; settings: fed divaric acid
Procedure, shortened: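 S. cerevisiae expressing A. niger CBCAS point mutants (N-terminal MFalpha2, C-terminal HDEL signal peptides) grown 2 days at 30 °C in YEP+4% dextrose, then 4 days at 20 °C in YEP+4% galactose with 1 mM divaric acid plus daily 2% galactose and 1 mM divaric acid spikes, then 2 days with 100 mM sodium citrate pH 5.5. Methanol extracts analysed by LC-MS; quadruplicate.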

[5] = secondary screen, olivetolic acid (Table 8)
[6] = share of terminal cannabinoid product profile
[7] = S. cerevisiae strains expressing A. niger CBCAS mutants, secondary screen

Row | Molecule | Mean CBCA [1] [µg/L] | Mean CBDA [1] [µg/L] | Mean THCA [1] [µg/L] | Average CBGA residual substrate [1] [µg/L] | % CBCA [1] [%] | % CBDA [1] [%] | % THCA [1] [%] | Average CBGVA residual substrate [2] [µg/L] | Mean CBCVA [2] [µg/L] | Mean CBDVA [2] [µg/L] | Mean THCVA [2] [µg/L] | % CBCVA [2] [%] | % CBDVA [2] [%] | % THCVA [2] [%] | further results
1 | B1 | 2934.86 | 0.00 | 0.00 | 63815.30 | 100.00 | 0.00 | 0.00 | 9247.47 | 1841.90 | 0.00 | 282.10 | 86.72 | 0.00 | 13.28 | 
2 | B2 |  |  |  |  |  |  |  |  |  |  |  |  |  |  | percentage of CBCA in product profile compared with the A. niger positive control [1]: higher percentage of CBCA
3 | B3 |  |  |  |  |  |  |  |  |  |  |  |  |  |  | Mean CBCA [3, 5]: 9992.22 µg/L; Mean CBDA [3, 5]: 3051.02 µg/L; Mean THCA [3, 5]: 622.72 µg/L; % CBCA [3, 6]: 73.12%; % CBDA [3, 6]: 22.33%; % THCA [3, 6]: 4.56%; Mean CBCVA [4, 7]: 1441.55 µg/L; Mean CBDVA [4, 7]: 0.00 µg/L; Mean THCVA [4, 7]: 702.24 µg/L; % CBCVA [4, 6]: 67.24%; % CBDVA [4, 6]: 0.00%; % THCVA [4, 6]: 32.76%
4 | B4 | 20281.01 | 64.49 | 1367.99 | 0.00 | 93.40 | 0.30 | 6.30 | 0.00 | 2379.23 | 0.00 | 1626.74 | 59.39 | 0.00 | 40.61 | 
5 | B5 | 12281.96 | 37.34 | 760.03 | 69.20 | 93.90 | 0.29 | 5.81 | 0.00 | 3599.07 | 0.00 | 1273.10 | 73.87 | 0.00 | 26.13 | 
